The results in this text go back to PMC6363788, “Crystal structures of human lysosomal EPDR1 reveal homology with the superfamily of bacterial lipoprotein transporters” (Communications Biology, 2019).

The series concerns the molecule itself. As to the kind of experiment: SEC; in solution; the only column and buffer told are those of the purification step (Superdex200 16/60, 10 mM Tris-HCl pH 8.0, 100 mM NaCl). For orientation: In gel filtration, larger molecules generally elute earlier.

B1: Human EPDR1 (ependymin-related protein 1), glycosylated (natural protein, UniProt Q9UM22-1 38-224, looked up)
chain: APRPCQAPQQWEGRQVMYQQSSGRNSRALLSYDGLNQRVRVLDERKALIPCKRLFEYILLYKDGVMFQIDQATKQCSKMTLTQPWDPLDIPQNSTFEDQYSIGGPQEQITVQEWSDRKSARSYETWIGIYTVKDCYPVQETFTINYSVILSTRFFDIQLGIKDPSVFTPPSTCQMAQLEKMSEDCSW
modifications: N-glycan at Asn130; disulfide bonds C42/C172, C113/C210, C88/C222
notes: EPDR1 (MERP-1; UCC1), human, Uniprot Q9UM22, residues 38-224; The N-terminal tag of the PB-T-PAF plasmid (secretion signal, protein A tag, thrombin site) was removed with thrombin; The six C-terminal histidines have no stated cleavage site, and the protein went through a second Ni2+ step after thrombin, so they were probably kept; also called MERP-1; UCC1; not shown: protein A, N-terminal, cleaved
As for B1, the stoichiometry N – broadly, a count of units in the complex or per binding partner – worked out at 2.
